From patent US20210032352A1 (ANTERA THERAPEUTICS, published 2021)

Tests used:
FcRn = FcRn (UniProt P55899 24-297; P61769 21-119); assay: steady-state BLI at pH 6.0, FcRn immobilised, serial dilutions (0.1-225 nM) of the FLAg in solution
Protocol: (§1) Coated sensors were equilibrated in assay buffer (PBS, 1% BSA, 0.05% Tween20) and transferred into Fc receptor solutions. Association was monitored for 600 seconds, the sensors were transferred to assay buffer, and dissociation was monitored for 600 seconds. CD64 and all other Fc receptors were assayed at 50 nM or 300 nM, respectively, at pH 7.4, unless as indicated. Shake speed was 1000 rpm and temperature was 25° C. End-point response values were taken at the end of the association phase and were normalized to isotype controls. […] The association and disassociation times were 600 or 1200 seconds, respectively.

FZD1 CRD, Fc-tagged [1] = target: T1, FZD1 CRD, Fc-tagged (human, UniProt Q9UP38 70-250); assay: kinetic table (called BLI in paragraph 170); the row labels kd and ka are interchanged on the sheet: the KD row equals the 10^-3 row divided by the 10^5 row
T1 construct: domain: CRD; Bought; not shown: Fc tag of the purchased fusion

[2] = target: T2, human LRP6 ECD, Fc-tagged (human, UniProt O75581 20-1370); assay: as above
T2 construct: extracellular domain; Bought; also called LRP co-receptor; not shown: Fc tag of the purchased fusion
T2 sequence (looked up): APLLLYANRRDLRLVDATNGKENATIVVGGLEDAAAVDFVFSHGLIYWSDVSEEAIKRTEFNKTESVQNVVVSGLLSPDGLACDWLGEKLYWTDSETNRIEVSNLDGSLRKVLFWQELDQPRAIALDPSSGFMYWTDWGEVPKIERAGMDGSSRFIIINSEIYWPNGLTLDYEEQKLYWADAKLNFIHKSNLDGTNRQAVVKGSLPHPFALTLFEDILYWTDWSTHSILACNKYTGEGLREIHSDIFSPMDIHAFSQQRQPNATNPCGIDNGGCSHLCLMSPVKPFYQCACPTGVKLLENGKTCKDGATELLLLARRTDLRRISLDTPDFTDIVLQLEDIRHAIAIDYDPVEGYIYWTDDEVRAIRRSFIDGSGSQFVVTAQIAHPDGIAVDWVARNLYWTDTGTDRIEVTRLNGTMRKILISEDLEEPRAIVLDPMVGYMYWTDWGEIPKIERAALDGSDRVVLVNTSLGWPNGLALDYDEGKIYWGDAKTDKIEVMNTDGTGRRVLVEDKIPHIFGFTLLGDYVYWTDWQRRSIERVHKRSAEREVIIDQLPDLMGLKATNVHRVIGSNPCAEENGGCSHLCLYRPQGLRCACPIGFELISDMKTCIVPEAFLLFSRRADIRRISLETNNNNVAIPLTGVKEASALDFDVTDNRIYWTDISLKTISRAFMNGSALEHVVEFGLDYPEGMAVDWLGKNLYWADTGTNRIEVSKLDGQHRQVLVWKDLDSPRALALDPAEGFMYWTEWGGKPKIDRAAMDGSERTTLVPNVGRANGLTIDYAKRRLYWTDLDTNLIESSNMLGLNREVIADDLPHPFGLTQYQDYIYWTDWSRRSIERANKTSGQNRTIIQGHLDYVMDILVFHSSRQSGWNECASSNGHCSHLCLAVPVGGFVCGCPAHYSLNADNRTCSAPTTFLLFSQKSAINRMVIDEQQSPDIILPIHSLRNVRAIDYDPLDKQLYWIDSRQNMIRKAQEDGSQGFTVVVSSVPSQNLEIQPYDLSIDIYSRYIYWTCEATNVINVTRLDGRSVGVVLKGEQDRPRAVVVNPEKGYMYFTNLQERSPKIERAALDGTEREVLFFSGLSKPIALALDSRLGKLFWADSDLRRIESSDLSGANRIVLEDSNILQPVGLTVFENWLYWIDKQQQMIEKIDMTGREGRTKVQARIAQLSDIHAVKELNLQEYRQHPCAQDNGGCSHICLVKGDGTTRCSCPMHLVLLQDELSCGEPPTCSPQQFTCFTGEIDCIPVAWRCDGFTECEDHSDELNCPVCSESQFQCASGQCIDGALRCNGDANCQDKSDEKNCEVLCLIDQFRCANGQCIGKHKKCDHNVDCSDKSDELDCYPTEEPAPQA

[3] = target: LRP6 on HEK293/HEK293T reporter cells (UniProt O75581 20-1613, limits assumed); assay: cell-based or functional assay
[4] = target: T2, human LRP6 ECD, Fc-tagged; assay: BLI kinetics, human LRP6 ECD
C1q = target: T3, C1q (UniProt P02745 23-245; P02746 28-253; P02747 29-245); assay: BLI end point: IgG1, FLAg or Fab immobilised on the sensor, receptor in solution (300 nM; CD64 50 nM), signal normalised to the isotype control
T3 construct: also called complement (C1q); Clq
Protocol: as §1

CD64 = target: T4, CD64 (UniProt P12314 16-288); assay: as above
T4 construct: also called monocyte and macrophage marker CD64
Protocol: as §1

FZD1 CRD, Fc-tagged [5] = target: T1, FZD1 CRD, Fc-tagged; assay: kinetic table (called BLI in paragraph 170)
FZD2 CRD, Fc-tagged [6] = target: T5, FZD2 CRD, Fc-tagged (human, UniProt Q14332 24-190); assay: kinetic table (called BLI in paragraph 170)
T5 construct: domain: CRD; Bought; not shown: Fc tag of the purchased fusion

FZD7 CRD, Fc-tagged [7] = target: T6, FZD7 CRD, Fc-tagged (human, UniProt O75084 33-185); assay: kinetic table (called BLI in paragraph 170)
FZD1 CRD, Fc-tagged [8] = target: T1, FZD1 CRD, Fc-tagged; assay: kinetic table (called BLI in paragraph 35); quantity name and unit not printed in the table: KD in M follows from FIG. 12A, same values in nM
FZD2 CRD, Fc-tagged [9] = target: T5, FZD2 CRD, Fc-tagged; assay: as above
FZD7 CRD, Fc-tagged [10] = target: T6, FZD7 CRD, Fc-tagged; assay: as above

T1 sequence (Q9UP38 70-250): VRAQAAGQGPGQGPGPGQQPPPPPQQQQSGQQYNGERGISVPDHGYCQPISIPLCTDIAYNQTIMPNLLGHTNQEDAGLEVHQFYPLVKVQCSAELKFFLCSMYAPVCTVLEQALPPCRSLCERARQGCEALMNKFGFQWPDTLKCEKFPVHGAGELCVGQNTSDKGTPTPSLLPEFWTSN
T4 sequence (P12314 16-288 limits assumed): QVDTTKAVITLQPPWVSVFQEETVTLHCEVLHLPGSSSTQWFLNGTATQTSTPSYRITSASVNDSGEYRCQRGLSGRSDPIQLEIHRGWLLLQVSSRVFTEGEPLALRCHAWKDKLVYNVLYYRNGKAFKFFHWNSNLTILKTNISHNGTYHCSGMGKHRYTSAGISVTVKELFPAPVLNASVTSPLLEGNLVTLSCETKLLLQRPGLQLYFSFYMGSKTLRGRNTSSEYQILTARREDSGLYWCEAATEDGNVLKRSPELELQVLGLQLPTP
T3 sequence (P02745 23-245 limits assumed, chain 1 of 3): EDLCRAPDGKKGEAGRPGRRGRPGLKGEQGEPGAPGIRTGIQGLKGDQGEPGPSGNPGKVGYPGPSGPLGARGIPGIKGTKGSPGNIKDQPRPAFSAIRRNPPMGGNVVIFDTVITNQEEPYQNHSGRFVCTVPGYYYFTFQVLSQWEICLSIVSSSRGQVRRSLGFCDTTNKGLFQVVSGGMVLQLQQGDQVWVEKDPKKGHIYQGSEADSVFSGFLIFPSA
T3 sequence (P02746 28-253 limits assumed, chain 2 of 3): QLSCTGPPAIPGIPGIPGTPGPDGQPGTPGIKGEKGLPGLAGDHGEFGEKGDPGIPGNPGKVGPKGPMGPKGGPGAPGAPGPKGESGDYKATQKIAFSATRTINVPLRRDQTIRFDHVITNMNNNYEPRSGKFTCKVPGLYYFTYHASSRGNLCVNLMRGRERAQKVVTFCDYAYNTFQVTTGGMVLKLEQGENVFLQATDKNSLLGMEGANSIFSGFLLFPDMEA
T3 sequence (P02747 29-245 limits assumed, chain 3 of 3): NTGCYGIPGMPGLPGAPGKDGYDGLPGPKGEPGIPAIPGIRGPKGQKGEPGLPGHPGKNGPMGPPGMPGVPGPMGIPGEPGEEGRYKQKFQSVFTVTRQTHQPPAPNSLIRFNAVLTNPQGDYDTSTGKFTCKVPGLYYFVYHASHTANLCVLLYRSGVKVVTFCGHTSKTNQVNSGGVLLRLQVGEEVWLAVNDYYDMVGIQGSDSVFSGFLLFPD

- EC50 (read off the curve) (FcRn): ~10000 pM
- koff (FZD1 CRD, Fc-tagged [1]): < 1e-06 s⁻¹
- kon (FZD1 CRD, Fc-tagged [1]): 395000 M⁻¹ s⁻¹
- koff [2]: 0.00181 s⁻¹
- kon [2]: 152000 M⁻¹ s⁻¹
- EC50 of activation of a LEF/TCF reporter gene in HEK293T cells [3]: ~5000 pM
- ß-catenin luciferase reporter assay in HEK293 cells, activation over background [3]: ~400 fold over background
- Kd [4]: 12000 pM
- binding result (C1q): binds
- binding result (CD64): binds
- Kd (FZD1 CRD, Fc-tagged [5]): < 10 pM
- Kd (FZD2 CRD, Fc-tagged [6]): 40 pM
- Kd (FZD7 CRD, Fc-tagged [7]): 60 pM
- Kd (FZD1 CRD, Fc-tagged [8]): < 10 pM
- Kd (FZD2 CRD, Fc-tagged [9]): 39 pM
- Kd (FZD7 CRD, Fc-tagged [10]): 57 pM
B1: F^P+P-L6^1+3 (5019-K/H-2539-2542) (bispecific antibody)
chain 1: EVQLVESGGGLVQPGGSLRLSCAASGFNIGSSSIHWVRQAPGKGLEWVASIYSAFASTSYADSVKGRFTISADTSKNTAYLQMNSLRAEDTAVYYCARYHFPFGFALDYWGQGTLVTVSSGGGGSDIQMTQSPSSLSASVGDRVTITCRASQSVSSAVAWYQQKPGKAPKLLIYSASSLYSGVPSRFSGSRSGTDFTLTISSLQPEDFATYYCQQGVYLFTFGQGTKVEIKLEDKTHTKVEPKTSDKTHTCPPCPAPELLGGPSVFLFPPKPKDTLMISRTPEVTCVVVDVSHEDPEVKFNWYVDGVEVHNAKTKPREEQYNSTYRVVSVLTVLHQDWLNGKEYKCKVSNKALPAPIEKTISKAKGQPREPMVFDLPPSREEMTKNQVSLWCMVKGFYPSDIAVEWESNGQPENNYKTTPPVLDSDGSFFLYSKLTVDKSRWQQGNVFSCSVMHEALHNHYTQKSLSLSPGKSGSETPGTSESATPESGGGEVQLVESGGGLVQPGGSLRLSCAASGFNISYSSIHWVRQAPGKGLEWVAYISSYYGYTYYADSVKGRFTISADTSKNTAYLQMNSLRAEDTAVYYCARAHYFPWAGAMDYWGQGTLVTVSSGGGGSDIQMTQSPSSLSASVGDRVTITCRASQSVSSAVAWYQQKPGKAPKLLIYSASSLYSGVPSRFSGSRSGTDFTLTISSLQPEDFATYYCQQYYWPITFGQGTKVEIK
chain 2: EVQLVESGGGLVQPGGSLRLSCAASGFNIGSSSIHWVRQAPGKGLEWVASIYSAFASTSYADSVKGRFTISADTSKNTAYLQMNSLRAEDTAVYYCARYHFPFGFALDYWGQGTLVTVSSGGGGSDIQMTQSPSSLSASVGDRVTITCRASQSVSSAVAWYQQKPGKAPKLLIYSASSLYSGVPSRFSGSRSGTDFTLTISSLQPEDFATYYCQQGVYLFTFGQGTKVEIKLEDKTHTKVEPKSSDKTHNCPPCPAPELLGGPSVFLFPPKPKDTLMISRTPEVTCVVVDVSHEDPEVKFNWYVDGVEVHNAKTKPREEQYNSTYRVVSVLTVLHQDWLNGKEYKCKVSNKALPAPIEKTISKAKGQPREPQVYTLPPIRELMTSNQVSLSCAVKGFYPSDIAVEWESNGQPENNYKTTPPVLDSDGSFFLVSKLTVDKSRWQQGNVFSCSVMHEALHNHYTQKSLSLSPGKSGSETPGTSESATPESGGGEVQLVESGGGLVQPGGSLRLSCAASGFNISSYYIHWVRQAPGKGLEWVASIYSSYGYTSYADSVKGRFTISADTSKNTAYLQMNSLRAEDTAVYYCARTVRGSKKPYFSGWAMDYWGQGTLVTVSSGGGGSDIQMTQSPSSLSASVGDRVTITCRASQSVSSAVAWYQQKPGKAPKLLIYSASSLYSGVPSRFSGSRSGTDFTLTISSLQPEDFATYYCQQYSWGPFTFGQGTKVEIK
